21 sequences from the DeepSol protein solubility set can be followed below.

The nature of the data set: soluble on expression in E. coli; label from the status in PepcDB or PDB records.
“MCLNFREDNVMKKIMVIFGTRPEAIKMAPLVKEIDHNGNFEANIVITAQHRDMLDSVLSIFDIQADHDLNIMQDQQTLAGLTANALAKLDSIINEEQPDMILVHGDTTTTFVGSLAAFYHQIPVGHVEAGLRTHQKYSPFPEELNRVMVSNIAELNFAPTVIAAKNLLFENKDKERIFITGNTVIDALSTTVQNDFVSTIINKHKGKKVVLLTAHRRENIGEPMHQIFKAVRDLADEYKDVVFIYPMHRNPKVRAIAEKYLSGRNRIELIEPLDAIEFHNFTNQSYLVLTDSGGIQEEAPTFGKPVLVLRNHTERPEGVEAGTSRVIGTDYDNIVRNVKQLIEDDEAYQRMSQANNPYGDGQASRRICEAIEYYFGLRTDKPDEFVPLRHK”: the “soluble on expression in E. coli” value was “not soluble”.

For the sequence “MPEVVFYPQNKSINVEEGTTILQAARSAGVIIESPCNGTGTCGKCKVRLDEKSLPNVLAKSRHYLSKEEEEQGYVLACETQITGDIKVELGENKQNGTLKILSRGHSFNIDLKPFIRKEYFVHEDVTKVFAGKEQLGIEAGDTTKENYGAVVDIGTTTLVASIVNLNNGDEIGTSSALNPQAVHAQDVLSRIKFSSDADGLKVMHSELTDKINSMIGKIALRAGISKEHIYEIVFSGNTCMLHLASNTCPESLGKYPYTPKISGAAYLDAAKYNIDISPFGIIYLPPIISAYVGADIVSGILASQLHEKDGVILFVDIGTNGEMVLASCGNLSATSTAAGPAFEGMNITCGMRAGEAAIEFFEIEEQGSINIKVIGETEAAGICGSGLLDMVGEFAAHGVIKKNGQFIDPESENVLHPKLAERLVRQDGKWIFKVTDKVFLSQKDIRQVQLAKGAVRAGIEFLLENKGVRASDVDKVLIAGSFGYHLREKSLINIGLLPKEFEGKVEFVGNTSLSGAKAFLLNQTYREKMKETVKSVEVLELANYKDFDRVFVRCLSFLEHHHHHH”, the “soluble on expression in E. coli” value is given as “not soluble”.

On to “MSIVMQLQDVAESTRLGPLSGEVRAGEILHLVGPNGAGKSTLLARMAGMTSGKGSIQFAGQPLEAWSATKLALHRAYLSQQQTPPFATPVWHYLTLHQHDKTRTELLNDVAGALALDDKLGRSTNQLSGGEWQRVRLAAVVLQITPQANPAGQLLLLDEPMNSLDVAQQSALDKILSALSQQGLAIVMSSHDLNHTLRHAHRAWLLKGGKMLASGRREEVLTPPNLAQAYGMNFRRLDIEGHRMLISTI”, for which the “soluble on expression in E. coli” value is on record as “soluble”.

“MSLGDQKPATIYAPTVRVTPNPAWPQVSWQLLVAKPSAARIIDSPRINVRPTPGELQVYHGAGWAQPATDMLEDSVVRAFEDSGKIAAVARIGAGIRSDYKLAIDVRRFESDYAGQSLPAATIELNAKLLHSSDQRVVASRTFTVARPSSSTDTAAVAAAFEQALTQVTTELVGWTLITGQQDSQTLPRALEGHHHHHH”: the “soluble on expression in E. coli” value is recorded as “soluble”.

For “MAHHHHHHMLKCVSRVFLGAKTVPLNPHVPFKLHTAGRDDLPPIPTTATYEPEKIKENLAMMIRIRRVEALADQSYKLKKIRGFCHLCIGQEAIPVGMENVLSRGDPVVTGYRDHGLFMTRGGTIEELFAELFGREGGCSKGKGGSMHMYRVKENFYGGNGIVGAQAPLGAGLAWRYALENRDKPSNVAVTFYGDGAANQGQVFEAMNIAALQRIPVIFCCENNHYGMGTREDRAAYQPQMYRRGDYIPGLRVDGMDVLAVQEGTRWAKEWCLAGKGPVVLEMDSYRYMGHSMSDPDSQYRTKNDIQEVRRTRDCIEKMKEFVVSEGIMTVEEIKQMEKDVKKEVDKELPPAEKQAITPLKELFTDIYCGEQYEHRTTQGTVYAKP”, the “soluble on expression in E. coli” value is “not soluble”.

With “MALVVEDIVKNFGEGLSETKVLKGINFEVEQGEFVILNGASGSGKTTLLTILGGLLSQTSGTVLYNDAPLFDKQHRPSDLRLEDIGFIFQSSHLVPYLKVIEQLTLVGQEAGMTKQQSSTRAIQLLKNIGLEDRLNVYPHQLSGGEKQRVAIMRAFMNNPKIILADEPTASLDADRATKVVEMIRQQIKEQQMIGIMITHDRRLFEYADRVIELEDGKITD”, the “soluble on expression in E. coli” value is on record as “not soluble”.

“MKLIRGIHNLSQAPQEGCVLTIGNFDGVHRGHRALLQGLQEEGRKRNLPVMVMLFEPQPLELFATDKAPARLTRLREKLRYLAECGVDYVLCVRFDRRFAALTAQNFISDLLVKHLRVKFLAVGDDFRFGAGREGDFLLLQKAGMEYGFDITSTQTFCEGGVRISSTAVRQALADDNLALAESLLGHPFAISGRVVHGDELGRTIGFPTANVPLRRQVSPVKGVYAVEVLGLGEKPLPGVANIGTRPTVAGIRQQLEVHLLDVAMDLYGRHIQVVLRKKIRNEQRFASLDELKAQIARDELTAREFFGLTKPA”: the “soluble on expression in E. coli” value is “soluble”.

With “MTQTVYVKLSQITQVHKKDVFLSDIADVYCSDKSTASRCKAVKVQTIHSDQEKRYMGSIVDVVQKISENVPEAEVNSVGETDFIIDYQPSKKPMYTWQW”, the “soluble on expression in E. coli” value is reported as “not soluble”.

For “MAHHHHHHMDFQNRVGHKTGSGMPLSREDINQERRERLKQLALENIDITKDPYILKNNVGMFECKLCLTLHNNESSYLCHTQGKKHQMNLAQRLLKEKNEMTTNRLNKPVSEPRKIVKIGKPRYDVTRVRNKKNQLGILFELSFPNIKENTKPKFRFMSSFEQKIEAPDKKYQYLLFAAEPYETIAFKIPNIDIDENEGFYYKWFDKKKIFVMQIHFQNAFPPGHVNLREHSNFLSSTNRW”, the “soluble on expression in E. coli” value is “not soluble”.

With “MGSDKIHHHHHHMLEHKIDFMVTLEVKEANANGDPLNGNMPRTDAKGYGVMSDVSIKRKIRNRLQDMGKSIFVQANERIEDDFRSLEKRFSQHFTAKTPDKEIEEKANALWFDVRAFGQVFTYLKKSIGVRGPVSISMAKSLEPIVISSLQITRSTNGMEAKNNSGRSSDTMGTKHFVDYGVYVLKGSINAYFAEKTGFSQEDAEAIKEVLVSLFENDASSARPEGSMRVCEVFWFTHSSKLGNVSSARVFDLLEYHQSIEEKSTYDAYQIHLNQEKLAKYEAKGLTLEILEGL”, the “soluble on expression in E. coli” value is given as “not soluble”.

As for “MPSLVIQDGGASIIRAVRPEEFAPQAPGKLLAIGRGVYAFLPDPLPPRLEWSLRLIALLDEARGALGELAGLLRQLPNPYLFIRPFIQKEAVLSSRIEGTQAGLLDVYALEAQVPLFPSPKLREDAQEVLNYIRALERGRELLQEIPLSLRLLKEVHAVLLRGVRGGGRAPGEFRRAQNWIGPPGSSLEEARYVPPPPGPMLEALDALERFWHSDHGLPPLVEIALVHYQFEAIHPFLDGNGRMGRLLITLMLLERGLLPEPALYLSAYFERHRTLYYDLLLGVSQRGAWEDWLAFFLEGVRTEAKDVAERARRLLDLWREWRERYGRKGGSAHILGLLDLLFERPVLTVPLVKDRLGITHAWANRLVQRLEEDGILTPVSERKRNRLYAAKEILEILEEARNA”, the “soluble on expression in E. coli” value is given as “soluble”.

On to “MENYLIDNLDRGILEALMGNARTAYAELAKQFGVSPETIHVRVEKMKQAGIITGARIDVSPKQLGYDVGCFIGIILKSAKDYPSALAKLESLDEVTEAYYTTGHYSIFIKVMCRSIDALQHVLINKIQTIDEIQSTETLIVLQNPIMRTIKP”, for which the “soluble on expression in E. coli” value is recorded as “soluble”.

With “MNVGDRVRVTSSVVVYHHPEHKKTAFDLQGMEGEVAAVLTEWQGRPISANLPVLVKFEQRFKAHFRPDEVTLIED”, the “soluble on expression in E. coli” value is on record as “soluble”.

For the sequence “GMKCNDKLAPFEVFDHVVNKKLSFRHVTMDDVDMLHSWMHEEHVIPYWKLNIPLVDYKKHLQTFLNDDHQTLMVGAINGVPMSYWESYWVKEDIIANYYPFEEHDQGIHLLIGPQEYLGQGLIYPLLLAIMQQKFQEPDTNTIVAEPDRRNKKMIHVFKKCGFQPVKEVELPDKIGLLMKCEQNVFEKRWSDWKMNKF”, the “soluble on expression in E. coli” value was “soluble”.

For “MSRAVTRSRLNSTTDQFMAEKINESDILERLNQTHTVRGFFITTVDVLTEAIDALMQRIFRKDNFAVKSVVEPLLHDTGPLGDLTVRLKLLFGLGVIPDEVFHDIEHLIKLRNQLNHDATEYQFTDPQILAPIKALNLVKKMGMLHLNVVEPDDDIDLSFYHLQLQRQQQVIKSGLSLAIIQICNALNK”, the “soluble on expression in E. coli” value was “not soluble”.

Take “MAHHHHHHMKLYSLAIVKPYPSGVEKQPVICSQAIDVSSFGFFQRNSAREFIVFLTRTVSNRVAKGVKTQITENGNVVFAHATFDGLVALAISDVEYNSRVAFTLLGDLVQQFQTTFRGKYDLVDGKEDNFLSWPHLTETLEKYQKPEEQDKILKIKRDIEDTKVIMYNAIDQIIERGQKIDDLVAQSEDLGMASKTFYKQAKKTNSGCCTVM”: the “soluble on expression in E. coli” value is listed as “soluble”.

With “MNKIFIYAGVRNHNSKTLEYTKRLSSIISSRNNVDISFRTPFNSELEISNSDSEELFKKGIDRQSNADDGGVIKKELLESDIIIISSPVYLQNVSVDTKNFIERIGGWSHLFRLAGKFVVTLDVAESNGSDNVSEYLRDIFSYMGGQILHQVSITNSLKDIAEAQLMEATYKIEDVLEGKIKYKTTDYQERAYQTLKLILENYDSEHFEKMYWEKKRLFEANSLEEWYYVENIKLEHHHHHH”, the “soluble on expression in E. coli” value is recorded as “soluble”.

Turning to “MFGRLKQKVKEKTGRAKATTLPAEVDDAMGYFKNLTPRVKDLHKSMTNLEDISKWQKKASFSGTLENYSRLGDKINVKPFMDAVDARMGAEADAVKGVLAICEKYKSFYQNEGKLHADSIANLNRTRLDMDSAADKYANNETEVNKTRLDNSTTEFEVACERMRELANGIKTIESNHSSWQDGLMKEIKVALRK”, the “soluble on expression in E. coli” value is on record as “not soluble”.

For the sequence “MGSDKIHHHHHHMTALRQDIDPNGLLEYSVVYTDRALNHMSKAFQEVMNDLLSNLKTVYNAEAAVIIPGSGTYGMEAVARQLTIDEDCLIIRNGWFSYRWTQILEKGKFAKSSTVLTAERTEDTEAPKPFAPVDIETAVAKIKEDKSAIVYAPHVETSSGIILSEEYIKALSEAVHSVGGLLVIDCIASGCVWLDMKELGIDVLISAPQKGWSSTPCAGLVMLSAAAIKKVESTESNCFSLDLKQWLTIMRAYENGGHAYHATMPTDSLRQFRDAILEAKEIGFDILRDAQWELGNRVRKVLTDKGIESVAAEGFEAPGVVVSYTERDDMHKGSAFAEAGLQIAAGVPLKVGEPDNFKTFRLGLFGLDKLTDIDGTVERFEKALDEVLAK”, the “soluble on expression in E. coli” value is on record as “not soluble”.

For the sequence “MSLAPVNIFKAGADEERAETARLTSFIGAIAIGDLVKSTLGPKGMDKILLSSGRDASLMVTNDGATILKNIGVDNPAAKVLVDMSRVQDDEVGDGTTSVTVLAAELLREAESLIAKKIHPQTIIAGWREATKAAREALLSSAVDHGSDEVKFRQDLMNIAGTTLSSKLLTHHKDHFTKLAVEAVLRLKGSGNLEAIHIIKKLGGSLADSYLDEGFLLDKKIGVNQPKRIENAKILIANTGMDTDKIKIFGSRVRVDSTAKVAEIEHAEKEKMKEKVERILKHGINCFINRQLIYNYPEQLFGAAGVMAIEHADFAGVERLALVTGGEIASTFDHPELVKLGSCKLIEEVMIGEDKLIHFSGVALGEACTIVLRGATQQILDEAERSLHDALCVLAQTVKDSRTVYGGGCSEMLMAHAVTQLANRTPGKEAVAMESYAKALRMLPTIIADNAGYDSADLVAQLRAAHSEGNTTAGLDMREGTIGDMAILGITESFQVKRQVLLSAAEAAEVILRVDNIIKAAPRKRVPDHHEGHHHHHH”, the “soluble on expression in E. coli” value is “soluble”.

With “MDKGKGSKRSTPSLRAKKKTGTDRQKPSVKQNASQNSKKSSRQKKTPSVGKEREQATDKKREIEKKPQEKTALDEQQRKAQTETISNLEILPDKNPAKMDDGYEDFGPGAAAR”, the “soluble on expression in E. coli” value was “not soluble”.
